According to publication doi:10.1101/589515 (bioRxiv, 2019):

Target: the molecule itself
Assay: cryo-EM structure

B1: human polycystin-2 (PC2), truncated construct Pro185 - Asp723 (domain or fragment, UniProt Q13563 185-723, looked up)
chain: PRVAWAERLVRGLRGLWGTRLMEESSTNREKYLKSVLRELVTYLLFLIVLCILTYGMMSSNVYYYTRMMSQLFLDTPVSKTEKTNFKTLSSMEDFWKFTEGSLLDGLYWKMQPSNQTEADNRSFIFYENLLLGVPRIRQLRVRNGSCSIPQDLRDEIKECYDVYSVSSEDRAPFGPRNGTAWIYTSEKDLNGSSHWGIIATYSGAGYYLDLSRTREETAAQVASLKKNVWLDRGTRATFIDFSVYNANINLFCVVRLLVEFPATGGVIPSWQFQPLKLIRYVTTFDFFLAACEIIFCFFIFYYVVEEILEIRIHKLHYFRSFWNCLDVVIVVLSVVAIGINIYRTSNVEVLLQFLEDQNTFPNFEHLAYWQIQFNNIAAVTVFFVWIKLFKFINFNRTMSQLSTTMSRCAKDLFGFAIMFFIIFLAYAQLAYLVFGTQVDDFSTFQECIFTQFRIILGDINFAEIEEANRVLGPIYFTTFVFFMFFILLNMFLAIINDTYSEVKSDLAQQKAEMELSDLIRKGYHKALVKLKLKKNTVD
B1 was tested, and the “stoichiometry N” value was 4.
